The assay has as its target RAGE-Fc (human RAGE) (human, UniProt Q15109 23-342). Briefly: ELISA. Background: An ELISA detects its analyte on a solid surface through an enzyme-linked reagent.

Chain of RAGE-Fc (human RAGE) (Q15109 23-342): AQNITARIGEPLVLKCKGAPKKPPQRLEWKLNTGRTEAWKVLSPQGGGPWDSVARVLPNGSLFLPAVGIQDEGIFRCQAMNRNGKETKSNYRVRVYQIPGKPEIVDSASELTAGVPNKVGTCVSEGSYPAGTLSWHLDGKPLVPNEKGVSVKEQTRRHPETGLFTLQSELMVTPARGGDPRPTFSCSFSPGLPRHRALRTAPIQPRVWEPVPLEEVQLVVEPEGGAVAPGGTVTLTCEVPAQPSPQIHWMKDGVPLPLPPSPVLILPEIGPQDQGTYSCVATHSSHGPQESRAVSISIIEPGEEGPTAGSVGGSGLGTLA

B1: human recombinant S100A7 (ligand, UniProt P31151 1-101, looked up)
chain: MSNTQAERSIIGMIDMFHKYTRRDDKIEKPSLLTMMKENFPNFLSACDKKGTNYLADVFEKKDKNEDKKIDFSEFLSLLGDIATDYHKQSHGAAPCSGGSQ
As for B1, the binding result is recorded as “binds”.
